Laboratory results reported in paper PMC9728176.

Molecular target: T1, His6-Fur (Escherichia coli) (UniProt P0A9A9)
T1 sequence: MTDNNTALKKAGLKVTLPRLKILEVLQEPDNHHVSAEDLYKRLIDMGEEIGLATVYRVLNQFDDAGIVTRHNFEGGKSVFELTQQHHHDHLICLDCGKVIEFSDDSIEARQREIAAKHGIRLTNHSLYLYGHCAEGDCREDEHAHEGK
Test: EMSA
Details: EMSA: 10 mM Tris-HCl pH 7.5, 50 mM KCl, 0.5 mM DTT, 0.05 mg/ml BSA, 4% glycerin, 1 mM MgCl2, 0.1 mM MnCl2, 50 ug/ml poly(dI-dC), 10 ng probe, temperature not …

Question: Which binding does the source give for “GCGATATCACCGGTATAAGGGGCCAGCAGTTCCGCAGGGTCGAACTCTGCCAGATCTGCCAGCGCAACGAAGTTTTGCACCACCTGAATATCGCCCTGCACTTCCAGCTCACCACTGCGAATCAGTGCGGTAAGCTGCTGGCGATCGCGAAGTTTCGGCAACACACTGGCGTAGGCGATAACGGTGCA (double strand) [Biotin-PesrE (Biotin-S1V3)]” here?
Answer: binds
